The text below walks through data of patent publication EP3411068A2 (dated 2018).

The target in assay [1] is T1, human VEGFR2-Fc (human, UniProt P35968 20-764).
T1 construct: also called hVEGFR2; recombinant human VEGFR2
Nature of the assay: binding assay as in Example 2 (Figure 42).

The target of assay [2] is T2, human PDL1-Fc (human, UniProt Q9NZQ7 19-238).
T2 construct: also called hPDL1; hPDLl
Nature of the assay: binding assay as in Example 2 (Figure 42).

Assay [3] addresses T3, mouse PDL1 expressed on B16-F10 cells (mouse, UniProt Q9EP73 19-290).
T3 construct: whole, on cells; also called B16-F10 (mPDLl); cell expressed mouse PDL1
Nature of the assay: flow cytometry on B16-F10 cells.

Assay [4] addresses T4, human VEGFR2 expressed on KDR-PAE cells (human, UniProt P35968 20-1356).
T4 construct: whole, on cells; also called PAE-KDR; KDR-PAE (hVEGFR2)
Nature of the assay: flow cytometry on KDR-PAE cells. (Flow cytometry measures light scatter and fluorescence of single cells or particles in a stream.)

The target in assay [5] is T5, human PDL1 expressed on MDA-MB-231 cells (human, UniProt Q9NZQ7 19-290).
T5 construct: whole, on cells; also called cell expressed human PDL1
The assay can be described thus: flow cytometry on MDA-MB-231 cells.

For assay [6], the target named is T1, human VEGFR2-Fc. Nature of the assay: blocking ELISA, hVEGFR2-Fc binding to coated hVEGF.
Assay [7] concerns the target T6, mouse VEGFR2-Fc (mouse, UniProt P35918 20-762).
T6 construct: also called mVEGFR2; recombinant mouse VEGFR2
Nature of the assay: blocking ELISA, mVEGFR2-Fc binding to coated mVEGF. Background: In an ELISA, binding on a coated surface is turned into a signal by an enzyme label.

The target of assay [8] is T1, human VEGFR2-Fc. Nature of the assay: dose response ELISA, antigen-Fc coated, HRP anti-human Fab.
In assay [9] the target is T6, mouse VEGFR2-Fc. Described as above.
Assay [10] addresses T2, human PDL1-Fc. The description is as above.
The target of assay [11] is T7, mouse PDL1-Fc (mouse, UniProt Q9EP73 19-239, limits assumed).
T7 construct: also called mPDL1; mPDLl
T7 sequence (Q9EP73 19-239 limits assumed): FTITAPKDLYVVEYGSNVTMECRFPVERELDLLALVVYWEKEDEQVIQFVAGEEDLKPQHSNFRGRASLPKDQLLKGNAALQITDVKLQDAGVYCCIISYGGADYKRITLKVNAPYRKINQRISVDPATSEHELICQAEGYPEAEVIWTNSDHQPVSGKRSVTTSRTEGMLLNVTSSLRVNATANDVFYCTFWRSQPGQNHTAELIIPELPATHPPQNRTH
Described as above.

For assay [12], the target named is T2, human PDL1-Fc. The assay can be described thus: blocking ELISA, biotin hPDL1-Fc binding to immobilized hPD1.
For assay [13], the target named is T7, mouse PDL1-Fc. Nature of the assay: blocking ELISA, biotin mPDL1-Fc binding to immobilized mPD1.
In assay [14] the target is T2, human PDL1-Fc. The assay can be described thus: SPR (Biacore), hPDL1-Fc immobilized on CM5, antibody injected, 1:1 Langmuir. A general note: In SPR one partner is held on a chip, and binding of the other changes the refractive index at the surface.
The target of assay [15] is T1, human VEGFR2-Fc. Nature of the assay: SPR (Biacore), hVEGFR-Fc immobilized on CM5, antibody injected, 1:1 Langmuir.

T6 sequence (P35918 20-762 limits assumed): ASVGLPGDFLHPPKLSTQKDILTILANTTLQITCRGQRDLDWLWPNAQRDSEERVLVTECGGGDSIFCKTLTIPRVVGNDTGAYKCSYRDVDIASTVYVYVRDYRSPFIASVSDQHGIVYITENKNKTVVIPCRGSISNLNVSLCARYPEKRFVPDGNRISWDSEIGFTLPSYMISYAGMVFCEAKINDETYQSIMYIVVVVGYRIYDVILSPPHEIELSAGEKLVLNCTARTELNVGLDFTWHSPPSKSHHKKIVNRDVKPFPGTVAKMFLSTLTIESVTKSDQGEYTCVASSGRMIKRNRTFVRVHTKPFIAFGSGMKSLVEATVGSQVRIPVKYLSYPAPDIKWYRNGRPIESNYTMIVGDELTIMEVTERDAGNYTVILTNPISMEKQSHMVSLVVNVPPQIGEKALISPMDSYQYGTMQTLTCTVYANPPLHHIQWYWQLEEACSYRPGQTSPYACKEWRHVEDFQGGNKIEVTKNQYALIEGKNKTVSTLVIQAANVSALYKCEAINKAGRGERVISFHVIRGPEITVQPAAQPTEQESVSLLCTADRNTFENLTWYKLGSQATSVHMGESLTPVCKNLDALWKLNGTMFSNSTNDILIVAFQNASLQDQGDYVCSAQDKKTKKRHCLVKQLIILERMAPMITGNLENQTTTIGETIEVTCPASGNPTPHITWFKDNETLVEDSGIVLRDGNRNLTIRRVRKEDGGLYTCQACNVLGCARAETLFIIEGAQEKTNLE
T4 sequence (P35968 20-1356): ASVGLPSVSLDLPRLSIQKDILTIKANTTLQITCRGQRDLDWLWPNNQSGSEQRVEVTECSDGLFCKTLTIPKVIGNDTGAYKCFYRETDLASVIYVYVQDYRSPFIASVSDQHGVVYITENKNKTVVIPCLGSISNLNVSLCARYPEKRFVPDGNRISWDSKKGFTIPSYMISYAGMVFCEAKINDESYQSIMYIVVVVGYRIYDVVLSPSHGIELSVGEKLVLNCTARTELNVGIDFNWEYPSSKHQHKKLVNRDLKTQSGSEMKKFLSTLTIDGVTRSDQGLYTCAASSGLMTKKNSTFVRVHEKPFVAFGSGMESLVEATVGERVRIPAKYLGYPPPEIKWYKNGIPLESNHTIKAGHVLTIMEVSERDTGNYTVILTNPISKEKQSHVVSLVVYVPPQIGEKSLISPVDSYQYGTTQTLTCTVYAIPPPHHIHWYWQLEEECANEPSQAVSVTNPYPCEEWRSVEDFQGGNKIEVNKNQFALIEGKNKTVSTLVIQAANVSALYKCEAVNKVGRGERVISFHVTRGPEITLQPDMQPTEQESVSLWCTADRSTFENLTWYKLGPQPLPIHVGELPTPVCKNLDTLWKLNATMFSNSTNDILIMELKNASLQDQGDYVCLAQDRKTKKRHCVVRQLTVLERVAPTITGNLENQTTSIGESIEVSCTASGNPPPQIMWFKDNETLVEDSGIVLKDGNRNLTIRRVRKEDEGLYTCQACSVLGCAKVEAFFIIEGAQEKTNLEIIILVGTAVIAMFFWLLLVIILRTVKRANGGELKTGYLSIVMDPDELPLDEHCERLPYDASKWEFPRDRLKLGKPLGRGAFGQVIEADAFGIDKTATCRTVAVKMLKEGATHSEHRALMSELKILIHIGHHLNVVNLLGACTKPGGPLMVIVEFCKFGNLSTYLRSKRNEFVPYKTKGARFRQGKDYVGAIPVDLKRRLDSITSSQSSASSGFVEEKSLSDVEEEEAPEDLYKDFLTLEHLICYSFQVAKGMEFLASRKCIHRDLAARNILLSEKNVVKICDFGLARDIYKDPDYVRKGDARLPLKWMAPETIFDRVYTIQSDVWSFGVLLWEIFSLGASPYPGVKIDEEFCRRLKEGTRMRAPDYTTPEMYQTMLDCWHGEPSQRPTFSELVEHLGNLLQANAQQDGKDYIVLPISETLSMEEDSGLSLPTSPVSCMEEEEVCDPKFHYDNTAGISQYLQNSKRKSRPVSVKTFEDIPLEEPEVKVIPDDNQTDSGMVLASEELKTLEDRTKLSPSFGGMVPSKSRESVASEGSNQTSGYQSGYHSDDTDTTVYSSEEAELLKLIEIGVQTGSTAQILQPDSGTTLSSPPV
T1 sequence (P35968 20-764 limits assumed): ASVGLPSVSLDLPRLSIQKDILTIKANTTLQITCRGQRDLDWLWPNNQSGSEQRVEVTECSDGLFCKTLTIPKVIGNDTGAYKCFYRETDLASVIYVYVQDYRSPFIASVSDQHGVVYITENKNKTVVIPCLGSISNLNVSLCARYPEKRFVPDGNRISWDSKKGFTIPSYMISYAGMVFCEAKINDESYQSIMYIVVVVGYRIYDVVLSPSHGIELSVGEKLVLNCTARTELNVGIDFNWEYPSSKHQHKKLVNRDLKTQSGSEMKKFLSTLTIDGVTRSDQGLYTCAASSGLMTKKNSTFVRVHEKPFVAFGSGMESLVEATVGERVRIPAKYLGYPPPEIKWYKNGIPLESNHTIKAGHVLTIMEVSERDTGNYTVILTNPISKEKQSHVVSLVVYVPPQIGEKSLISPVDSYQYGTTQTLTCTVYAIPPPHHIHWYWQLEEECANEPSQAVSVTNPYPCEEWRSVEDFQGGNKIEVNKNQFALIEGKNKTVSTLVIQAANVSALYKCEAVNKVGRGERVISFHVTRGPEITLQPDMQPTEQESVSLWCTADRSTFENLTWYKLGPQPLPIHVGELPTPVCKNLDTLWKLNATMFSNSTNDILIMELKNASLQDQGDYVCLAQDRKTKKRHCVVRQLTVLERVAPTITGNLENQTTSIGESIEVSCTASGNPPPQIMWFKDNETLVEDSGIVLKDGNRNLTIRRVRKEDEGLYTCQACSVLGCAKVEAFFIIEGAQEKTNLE
T2 sequence (Q9NZQ7 19-238 limits assumed): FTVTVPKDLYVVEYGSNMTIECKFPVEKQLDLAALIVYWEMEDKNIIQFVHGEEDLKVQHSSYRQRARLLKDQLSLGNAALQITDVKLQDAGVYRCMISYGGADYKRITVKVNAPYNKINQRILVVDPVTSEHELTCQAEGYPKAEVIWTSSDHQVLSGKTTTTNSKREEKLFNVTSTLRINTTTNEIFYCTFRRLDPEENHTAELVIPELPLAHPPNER
T3 sequence (Q9EP73 19-290): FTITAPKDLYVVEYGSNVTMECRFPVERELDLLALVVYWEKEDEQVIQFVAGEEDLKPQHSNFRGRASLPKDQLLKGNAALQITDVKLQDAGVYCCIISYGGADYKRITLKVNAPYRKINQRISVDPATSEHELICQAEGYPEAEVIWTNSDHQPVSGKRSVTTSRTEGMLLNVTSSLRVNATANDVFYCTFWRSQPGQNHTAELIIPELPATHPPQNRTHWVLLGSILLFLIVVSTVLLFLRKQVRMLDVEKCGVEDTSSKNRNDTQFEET

B1: BsAb (D7A8-B1A1) (bispecific antibody, human IgG1, lambda, L234A L235A)
heavy: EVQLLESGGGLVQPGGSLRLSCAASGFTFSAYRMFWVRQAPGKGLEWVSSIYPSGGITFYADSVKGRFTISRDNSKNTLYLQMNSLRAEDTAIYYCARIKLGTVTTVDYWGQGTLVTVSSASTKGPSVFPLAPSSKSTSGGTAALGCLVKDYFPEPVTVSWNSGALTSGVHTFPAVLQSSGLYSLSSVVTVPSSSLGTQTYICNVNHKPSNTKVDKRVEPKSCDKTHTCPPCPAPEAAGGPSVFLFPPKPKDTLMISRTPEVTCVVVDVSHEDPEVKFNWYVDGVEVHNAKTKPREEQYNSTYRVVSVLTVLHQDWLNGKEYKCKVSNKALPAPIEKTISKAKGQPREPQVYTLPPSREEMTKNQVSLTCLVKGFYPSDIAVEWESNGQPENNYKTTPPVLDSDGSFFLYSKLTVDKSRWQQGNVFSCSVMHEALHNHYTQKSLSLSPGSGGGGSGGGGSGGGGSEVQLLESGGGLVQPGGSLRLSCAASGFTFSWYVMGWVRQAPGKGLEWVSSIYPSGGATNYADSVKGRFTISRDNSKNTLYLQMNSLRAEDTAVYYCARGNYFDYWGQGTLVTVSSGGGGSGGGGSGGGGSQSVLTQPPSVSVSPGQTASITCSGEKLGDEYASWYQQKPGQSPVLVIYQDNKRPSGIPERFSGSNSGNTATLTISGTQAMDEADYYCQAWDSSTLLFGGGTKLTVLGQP
light: QSALTQPASVSGSPGQSITISCTGTSSDVGAYNYVSWYQQHPGKAPKLMIYDVSNRPSGVSNRFSGSKSGNTASLTISGLQAEDEADYYCSSYTSSSTRVFGTGTKVTVLGQPKAAPSVTLFPPSSEELQANKATLVCLISDFYPGAVTVAWKADSSPVKAGVETTKPSKQSNNKYAASSYLSLTPEQWKSHRSYSCQVTHEGSTVEKTVAPTECS
For B1, the binding result with human VEGFR2-Fc [1] and with human PDL1-Fc [2] was “binds” each time.

B2: BsAb (D7A8-B1A1)_30 (bispecific antibody, human IgG1, lambda, L234A L235A)
heavy: not shown
light: QSALTQPASVSGSPGQSITISCTGTSSDVGAYNYVSWYQQHPGKAPKLMIYDVSNRPSGVSNRFSGSKSGNTASLTISGLQAEDEADYYCSSYTSSSTRVFGTGTKVTVLGQPKAAPSVTLFPPSSEELQANKATLVCLISDFYPGAVTVAWKADSSPVKAGVETTKPSKQSNNKYAASSYLSLTPEQWKSHRSYSCQVTHEGSTVEKTVAPTECS
notes: Variant of BsAb (D7A8-B1A1), apparently with the 30GS linker
Consider B2, for which the binding result with human VEGFR2-Fc [1] and in the assay with human PDL1-Fc [2] was “binds” in each case.

B3: BsAb (D7A8-B1A1)_30cc (bispecific antibody, human IgG1, lambda, L234A L235A)
heavy: not shown
light: QSALTQPASVSGSPGQSITISCTGTSSDVGAYNYVSWYQQHPGKAPKLMIYDVSNRPSGVSNRFSGSKSGNTASLTISGLQAEDEADYYCSSYTSSSTRVFGTGTKVTVLGQPKAAPSVTLFPPSSEELQANKATLVCLISDFYPGAVTVAWKADSSPVKAGVETTKPSKQSNNKYAASSYLSLTPEQWKSHRSYSCQVTHEGSTVEKTVAPTECS
notes: Variant of BsAb (D7A8-B1A1), apparently with the 30GS linker and an added disulfide bond in the scFv; also called BsAb (D7A8-BlAl)_30cc
For B3, the binding result in the assay with human VEGFR2-Fc [1] and in the assay with human PDL1-Fc [2] was “binds” each time.

B4: BsAb (A7-A8)-LALA (bispecific antibody, human IgG1, kappa)
heavy: not shown
light: DIQMTQSPGTLSLSPGEGATLSCRASQSVSSNYFGWYQQKPGQAPRLLIYGASSRATGIPDRFSGSGSGTDFTLTISRLEPEDSAVYYCQQFDSLPLTFGGGTKVEIKRTVAAPSVFIFPPSDEQLKSGTASVVCLLNNFYPREAKVQWKVDNALQSGNSQESVTEQDSKDSTYSLSSTLTLSKADYEKHKVYACEVTHQGLSSPVTKSFNRGEC
notes: LALA version: leucines 234 and 235 of the IgG1 CH2 mutated to alanine; also called bi-specific antibody A7-A8
As usually defined, the EC50 is the concentration needed to bring the measured effect to its halfway point. By IC50 is commonly meant the midpoint of a concentration-inhibition curve. A low value points to greater potency in that assay. Usually Kd stands for a measure of binding affinity in units of concentration. The low end stands for higher affinity, the high end for lower affinity. For B4, the concentration giving a half-maximal response (EC50) in assay [3] turned out to be 0.122 nM; in assay [4], 0.533 nM; in assay [5], 0.223 nM; in the assay with human VEGFR2-Fc [8], 0.128 nM; in the assay with mouse VEGFR2-Fc [9] it was 0.598 nM; with human PDL1-Fc [10], 0.079 nM. Further, the half-maximal effective concentration (EC50) with mouse PDL1-Fc [11] worked out at 0.137 nM. For the same molecule, the 50% inhibitory concentration (IC50) with human VEGFR2-Fc [6] came to 1.29 nM; with mouse VEGFR2-Fc [7] it was 0.801 nM; in the assay with human PDL1-Fc [12], 2.51 nM; in the assay with mouse PDL1-Fc [13], 5.59 nM. Further, the dissociation constant Kd was roughly 0.0012 nM with human PDL1-Fc [14] and roughly 0.047 nM with human VEGFR2-Fc [15].

B5: BsAb (A1-A8)-LALA (bispecific antibody, human IgG1, lambda)
heavy: not shown
light: QSVLTQPPSVSVSPGQTASITCSGEKLGDEYASWYQQKPGQSPVLVIYQDNKRPSGIPERFSGSNSGNTATLTISGTQAMDEADYYCQAWDSSTLLFGGGTKLTVLGQPKAAPSVTLFPPSSEELQANKATLVCLISDFYPGAVTVAWKADSSPVKAGVETTKPSKQSNNKYAASSYLSLTPEQWKSHRSYSCQVTHEGSTVEKTVAPTECS
notes: LALA version: leucines 234 and 235 of the IgG1 CH2 mutated to alanine; also called bi-specific antibody A1-A8; A18
As for B5, the EC50 in assay [3] worked out at 0.113 nM; in assay [4], 0.779 nM; in [5], 0.402 nM; with human VEGFR2-Fc [8], 0.128 nM; in the assay with human PDL1-Fc [10] it was 0.088 nM; with mouse PDL1-Fc [11], 0.16 nM. The values for the IC50 with human VEGFR2-Fc [6], with human PDL1-Fc [12] and with mouse PDL1-Fc [13] were 1.19 nM, 2.51 nM and 3.2 nM, respectively. In addition, the dissociation constant Kd with human PDL1-Fc [14] is roughly 0.0032 nM; with human VEGFR2-Fc [15], roughly 0.2 nM.

B6: BsAb (A11-B1A1) (bispecific antibody, human IgG1, kappa, L234A L235A)
heavy: not shown
light: DIQMTQSPSSLSASVGDRVTITCRASQTVSKYFNWFQQKPGEAPKLLIYATSTLQSGVPSRFSGSGYGTEFTLTISSLQPEDFATYYCQQSYTTPWTFGQGTKVEIKRTVAAPSVFIFPPSDEQLKSGTASVVCLLNNFYPREAKVQWKVDNALQSGNSQESVTEQDSKDSTYSLSSTLTLSKADYEKHKVYACEVTHQGLSSPVTKSFNRGEC
On to B6, for which the binding result with human VEGFR2-Fc [1] and in the assay with human PDL1-Fc [2] was “binds” each time.

B7: BsAb (A11-B1A1)_30 (bispecific antibody, human IgG1, kappa, L234A L235A)
heavy: not shown
light: DIQMTQSPSSLSASVGDRVTITCRASQTVSKYFNWFQQKPGEAPKLLIYATSTLQSGVPSRFSGSGYGTEFTLTISSLQPEDFATYYCQQSYTTPWTFGQGTKVEIKRTVAAPSVFIFPPSDEQLKSGTASVVCLLNNFYPREAKVQWKVDNALQSGNSQESVTEQDSKDSTYSLSSTLTLSKADYEKHKVYACEVTHQGLSSPVTKSFNRGEC
Consider B7, for which the binding result in the assay with human VEGFR2-Fc [1] and in the assay with human PDL1-Fc [2] was “binds” in each case.

B8: BsAb (A11-B1A1)_30cc (bispecific antibody, human IgG1, kappa, L234A L235A)
heavy: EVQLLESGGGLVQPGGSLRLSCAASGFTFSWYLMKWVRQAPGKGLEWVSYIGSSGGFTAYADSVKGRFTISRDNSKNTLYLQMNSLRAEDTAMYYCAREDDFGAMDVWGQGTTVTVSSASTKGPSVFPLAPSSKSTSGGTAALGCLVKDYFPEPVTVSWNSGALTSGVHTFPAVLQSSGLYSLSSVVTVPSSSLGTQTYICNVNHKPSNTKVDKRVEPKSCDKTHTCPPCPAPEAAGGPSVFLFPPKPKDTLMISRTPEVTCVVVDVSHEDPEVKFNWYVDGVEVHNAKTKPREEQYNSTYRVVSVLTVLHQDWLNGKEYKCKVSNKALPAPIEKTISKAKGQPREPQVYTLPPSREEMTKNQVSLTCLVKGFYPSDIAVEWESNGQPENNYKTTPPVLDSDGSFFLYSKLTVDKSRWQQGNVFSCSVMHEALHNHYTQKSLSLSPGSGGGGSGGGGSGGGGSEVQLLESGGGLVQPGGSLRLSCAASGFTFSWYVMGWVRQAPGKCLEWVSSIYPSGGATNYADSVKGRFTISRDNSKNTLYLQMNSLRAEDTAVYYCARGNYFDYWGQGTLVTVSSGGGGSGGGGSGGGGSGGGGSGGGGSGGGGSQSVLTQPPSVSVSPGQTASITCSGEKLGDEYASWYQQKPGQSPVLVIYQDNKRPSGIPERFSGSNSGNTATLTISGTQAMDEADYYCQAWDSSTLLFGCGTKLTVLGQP
light: DIQMTQSPSSLSASVGDRVTITCRASQTVSKYFNWFQQKPGEAPKLLIYATSTLQSGVPSRFSGSGYGTEFTLTISSLQPEDFATYYCQQSYTTPWTFGQGTKVEIKRTVAAPSVFIFPPSDEQLKSGTASVVCLLNNFYPREAKVQWKVDNALQSGNSQESVTEQDSKDSTYSLSSTLTLSKADYEKHKVYACEVTHQGLSSPVTKSFNRGEC
notes: Variant of BsAb (A11-B1A1), apparently with the 30GS linker and an added disulfide bond in the scFv; also called BsAb (Al l-BlAl)_30cc
For B8, the binding result in the assay with human VEGFR2-Fc [1] and with human PDL1-Fc [2] was “binds” each time.

B9: B1C4A7 (antibody, human IgG1, kappa, V domains shown)
VH: EVQLLESGGGLVQPGGSLRLSCAASGFTFSWYVMGWVRQAPGKGLEWVSSIYPQGGATSYADSVKGRFTISRDNSKNTLYLQMNSLRAEDTAVYYCARGNYFDYWGQGTLVTVSS
VL: DIQMTQSPGTLSLSPGEGATLSCRASQSVSSNYFGWYQQKPGQAPRLLIYGASSRATGIPDRFSGSGSGTDFTLTISRLEPEDSAVYYCQQFDSLPLTFGGGTKVEIKR
notes: Parental mono-specific anti-VEGFR2 IgG1; also called anti-VEGFR2 antibody B1C4A7
As to B9, the EC50 in [4] is 0.522 nM; in the assay with human VEGFR2-Fc [8] it was 0.107 nM; with mouse VEGFR2-Fc [9], 0.466 nM. Further, the 50% inhibitory concentration (IC50) with human VEGFR2-Fc [6] was determined as 1.72 nM; in the assay with mouse VEGFR2-Fc [7] it was 0.973 nM. In addition, in the assay with human VEGFR2-Fc [15], the Kd turned out to be 0.052 nM.
